The source of these data is patent US20260015426A1 (23ANDME, published 2026).

Numbering of substitutions follows the chain as printed. Names may count otherwise.

Experiment [1] addresses T1, cyno-M-IL1RAP construct, positions S21-T367 (cynomolgus monkey, UniProt P59822 21-367 (rhesus entry)).
T1 construct: Biotinylated when captured on the Biacore chip; also called cy-M-IL1RAP
T1 sequence: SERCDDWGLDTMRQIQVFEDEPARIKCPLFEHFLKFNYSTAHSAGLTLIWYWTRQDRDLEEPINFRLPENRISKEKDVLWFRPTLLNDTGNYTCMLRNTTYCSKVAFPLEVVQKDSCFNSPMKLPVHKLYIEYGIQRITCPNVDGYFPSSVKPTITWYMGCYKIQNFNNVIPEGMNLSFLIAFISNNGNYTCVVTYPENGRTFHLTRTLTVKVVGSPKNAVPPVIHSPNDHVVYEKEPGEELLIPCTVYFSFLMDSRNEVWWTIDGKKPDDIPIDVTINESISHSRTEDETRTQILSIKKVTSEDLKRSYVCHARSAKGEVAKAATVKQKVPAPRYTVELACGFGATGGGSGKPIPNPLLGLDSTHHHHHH
In words: SPR, IgG analyte (apparent), pH 7.4, 37 C.

Experiment [2] has as its target T2, hu-M-IL1RAP construct, positions S21-T367 (extracellular domain of the membrane form of human IL1RAP) (human, UniProt Q9NPH3 21-367).
T2 construct: Biotinylated when captured on the Biacore chip
T2 sequence: T1 sequence with F183L, P273T, T326K
Briefly: SPR, IgG analyte (apparent), pH 7.4, 37 C. A general note: SPR reads the build-up and loss of mass on a sensor chip optically.

Experiment [3] addresses T3, human IL1RAP (hu-IL1RAP) on human cells (human, UniProt Q9NPH3 21-570).
T3 sequence: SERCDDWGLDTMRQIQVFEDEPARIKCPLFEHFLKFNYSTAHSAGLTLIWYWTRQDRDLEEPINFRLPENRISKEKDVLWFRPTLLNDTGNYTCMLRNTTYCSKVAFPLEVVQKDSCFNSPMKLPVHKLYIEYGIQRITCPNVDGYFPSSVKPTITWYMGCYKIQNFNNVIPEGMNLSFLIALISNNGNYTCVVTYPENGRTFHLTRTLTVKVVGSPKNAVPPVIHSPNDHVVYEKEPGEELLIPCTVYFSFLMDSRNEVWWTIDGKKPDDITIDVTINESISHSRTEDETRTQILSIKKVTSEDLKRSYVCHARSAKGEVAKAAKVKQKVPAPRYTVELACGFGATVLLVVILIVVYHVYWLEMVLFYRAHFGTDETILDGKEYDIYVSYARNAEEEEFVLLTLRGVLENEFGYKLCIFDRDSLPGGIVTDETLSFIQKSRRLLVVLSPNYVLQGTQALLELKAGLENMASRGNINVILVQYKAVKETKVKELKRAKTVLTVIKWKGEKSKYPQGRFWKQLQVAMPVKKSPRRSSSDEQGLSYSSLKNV
In words: cell-based or functional assay.

Experiment [4] concerns the target T1, cyno-M-IL1RAP construct, positions …. In words: SPR, IgG analyte (apparent), 37 C, pH 7.4.
Experimental: (§1) Surface plasmon resonance (SPR) analysis was used to determine binding affinity for hu-M-IL1RAP of the purified Fabs containing the selected single, double, and triple mutations in either the VL or VH regions using a BIACORE™ 8K instrument. […] For kinetics measurements, 5 nM biotinylated hu-M-IL1RAP was captured at 10 μL/min to achieve ˜50 response units in the second flow cell (FC2). FC1 was kept as a reference. […] The sensorgrams were recorded and subjected to reference and buffer subtraction before data analysis with the BIACORE® 8K Evaluation Software (version 1.1.1.7442). Association rates (kₒₙ) and dissociation rates (koff) were calculated using a simple one-to-one Langmuir binding model. The equilibrium dissociation constant (KD) was calculated as the ratio of koff/kₒₙ.
The target in experiment [5] is T2, hu-M-IL1RAP construct, positions …. Briefly: SPR, IgG analyte (apparent), 37 C, pH 7.4.
Experimental: as §1
Experiment [6] deals with T1, cyno-M-IL1RAP construct, positions …. Briefly: SPR, 37 C.
Experimental: as §1
Experiment [7] has as its target T2, hu-M-IL1RAP construct, positions …. Briefly: SPR, 37 C.
Experimental: as §1
Experiment [8] has as its target T1, cyno-M-IL1RAP construct, positions …. In words: SPR, IgG analyte (apparent), 37 C, pH 6.
Experimental: as §1
In experiment [9] the target is T2, hu-M-IL1RAP construct, positions …. Briefly: SPR, IgG analyte (apparent), 37 C, pH 6.
Experimental: as §1
Experiment [10] has the same target. Briefly: BLI (OCTET), mAb captured, 25 C.
Experimental: All samples were placed in black 96-well plates and the experiment was performed at 25° C. […] The biosensors were equilibrated in experimental buffer at 25° C. for ten minutes prior to starting the experiment.
The resulting BLI signal from analyte association and dissociation from the immobilized antibody was analyzed using the Octet Data Analysis software (Pall ForteBio). First, a reference subtraction was performed on all recorded traces using the reference well (biosensor that underwent the same steps as experimental wells but no analyte for the Association step), then all the traces were aligned to the beginning of the Association step.
Experiment [11] deals with T3, human IL1RAP (hu-IL1RAP) on human cells. Briefly: cell-based or functional assay. This is another data set of the same source.

B1: h11C5 variant K13/H3 IgG (YIS) (antibody)
heavy: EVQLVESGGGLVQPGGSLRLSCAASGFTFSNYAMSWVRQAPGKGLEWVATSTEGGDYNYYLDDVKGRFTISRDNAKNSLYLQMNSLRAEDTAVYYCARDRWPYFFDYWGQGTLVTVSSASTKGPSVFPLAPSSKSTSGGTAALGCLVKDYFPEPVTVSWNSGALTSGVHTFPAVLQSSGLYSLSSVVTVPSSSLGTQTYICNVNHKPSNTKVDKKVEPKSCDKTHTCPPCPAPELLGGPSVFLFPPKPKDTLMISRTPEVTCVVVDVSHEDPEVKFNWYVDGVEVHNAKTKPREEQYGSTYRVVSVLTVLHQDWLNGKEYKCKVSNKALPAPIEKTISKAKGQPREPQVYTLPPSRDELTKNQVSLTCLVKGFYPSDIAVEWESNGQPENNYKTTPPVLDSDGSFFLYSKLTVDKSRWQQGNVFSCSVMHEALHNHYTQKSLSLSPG
light: DIQMTQSPSSLSASVGDRVTITCRASENIYSNLAWYQQKPGKSPKLLVYGYKNLADGVPSRFSGSGSGTDYTLTISSLQPEDFATYYCQHFITTPRTFGGGTKVEIKRTVAAPSVFIFPPSDEQLKSGTASVVCLLNNFYPREAKVQWKVDNALQSGNSQESVTEQDSKDSTYSLSSTLTLSKADYEKHKVYACEVTHQGLSSPVTKSFNRGEC
notes: Human IgG1 N297G; also called 11C5-YIS
As to B1, in experiment [1], the Kd came out at 0.0116 nM; the off-rate constant (koff) (commonly a measure of how fast the partners let go of each other) turned out to be 3.34e-05 s⁻¹; the association rate constant (kon) (in general, the rate constant with which the complex forms) was 2.87e+06 M⁻¹ s⁻¹. Besides, in experiment [2], the Kd was determined as 0.013 nM, the off-rate (koff) was 3.33e-05 s⁻¹ and the kon worked out at 2.55e+06 M⁻¹ s⁻¹. Further, in experiment [3], the “HEK-Blue, IL-1β, % inhibition at 100 nM (IgG)” value (“HEK-Blue, IL-1β, % inhibition” below) was determined as 100%; the “HEK-Blue, IL-1β, IC50 (IgG)” value was 0.251 nM; the “HEK-Blue, IL-33, % inhibition at 100 nM (IgG)” value (“HEK-Blue, IL-33, % inhibition” for short) is 98%; the “HEK-Blue, IL-33, IC50 (IgG)” value worked out at 0.425 nM. In experiment [3], the “HEK-Blue, IL-36α, % inhibition at 100 nM (IgG)” value (from here on “HEK-Blue, IL-36α, % inhibition”) stood at 100% and the “HEK-Blue, IL-36α, IC50 (IgG)” value stood at 0.232 nM. For the same molecule, in experiment [4], the Kd was found to be 0.014 nM, the koff came to 3e-05 s⁻¹ and the kon turned out to be 2.14e+06 M⁻¹ s⁻¹. In experiment [5], the Kd amounted to 0.0213 nM, the off-rate (koff) was determined as 3.94e-05 s⁻¹ and the kon amounted to 1.85e+06 M⁻¹ s⁻¹. Moreover, in experiment [6], the “KD (6)/KD (7.4)” value came to 2.5 ratio, the “KD (7.4) ratio to YIS” value is 1 ratio and the “koff (6) ratio to YIS” value is 1 ratio. In addition, in experiment [7], the “KD (6)/KD (7.4)” value worked out at 3.3 ratio, the “KD (7.4) ratio to YIS” value was 1 ratio and the “koff (6) ratio to YIS” value came out at 1 ratio. Moreover, in experiment [8], the Kd was found to be 0.0345 nM, the dissociation rate constant (koff) stood at 6.94e-05 s⁻¹ and the kon came to 2.01e+06 M⁻¹ s⁻¹. For the same molecule, in experiment [9], the Kd was 0.0705 nM, the dissociation rate constant (koff) is 0.00015 s⁻¹ and the association rate constant (kon) was 2.12e+06 M⁻¹ s⁻¹.

B2: h11C5 variant K13/H2 IgG (YID) (antibody, V domains shown)
VH: EVQLVESGGGLVQPGGSLRLSCAASGFTFSNYAMSWVRQAPGKGLEWVATVTEGGDYNYYLDDVKGRFTISRDNAKNSLYLQMNSLRAEDTAVYYCARDDWPYFFDYWGQGTLVTVSS
VL: DIQMTQSPSSLSASVGDRVTITCRASENIYSNLAWYQQKPGKSPKLLVYGYKNLADGVPSRFSGSGSGTDYTLTISSLQPEDFATYYCQHFITTPRTFGGGTKVEIKR
notes: Human IgG1 N297G; also called 11C5-YID
Turning to B2, in [3], the “HEK-Blue, IL-1β, % inhibition” value amounted to 100%; the “HEK-Blue, IL-1β, IC50 (IgG)” value came to 0.361 nM; the “HEK-Blue, IL-33, % inhibition” value came to 99%; the “HEK-Blue, IL-33, IC50 (IgG)” value was determined as 1.52 nM. Further, in experiment [3], the “HEK-Blue, IL-36α, % inhibition” value turned out to be 100% and the “HEK-Blue, IL-36α, IC50 (IgG)” value came to 0.477 nM. In addition, in [4], the Kd worked out at 0.0244 nM, the koff was 4.62e-05 s⁻¹ and the on-rate (kon) was found to be 1.89e+06 M⁻¹ s⁻¹. For the same molecule, in experiment [5], the Kd worked out at 0.014 nM, the koff is 2.69e-05 s⁻¹ and the on-rate constant (kon) is 1.93e+06 M⁻¹ s⁻¹. In addition, in experiment [6], the “KD (6)/KD (7.4)” value was determined as 4.1 ratio, the “KD (7.4) ratio to YIS” value came to 1.7 ratio and the “koff (6) ratio to YIS” value was determined as 3 ratio. In experiment [7], the “KD (6)/KD (7.4)” value is 10 ratio, the “KD (7.4) ratio to YIS” value came out at 0.66 ratio and the “koff (6) ratio to YIS” value came to 2.8 ratio. Further, in [8], the Kd turned out to be 0.0993 nM, the koff came to 0.000215 s⁻¹ and the kon came to 2.16e+06 M⁻¹ s⁻¹. Besides, in experiment [9], the Kd turned out to be 0.141 nM, the koff worked out at 0.000414 s⁻¹ and the kon is 2.94e+06 M⁻¹ s⁻¹.

B3: h11C5 variant K17/H3 IgG (YKS) (antibody, V domains shown)
VH: B2 VH with V51S, D100R
VL: B2 VL with I92K
notes: Human IgG1 N297G; also called 11C5-YKS
In the case of B3, in experiment [3], the “HEK-Blue, IL-1β, % inhibition” value was found to be 100%; the “HEK-Blue, IL-1β, IC50 (IgG)” value amounted to 0.429 nM; the “HEK-Blue, IL-33, % inhibition” value was 87%; the “HEK-Blue, IL-33, IC50 (IgG)” value is 2.5 nM. Besides, in [3], the “HEK-Blue, IL-36α, % inhibition” value was found to be 96% and the “HEK-Blue, IL-36α, IC50 (IgG)” value was 0.418 nM. In experiment [4], the Kd was found to be 0.0221 nM, the off-rate (koff) stood at 4.51e-05 s⁻¹ and the on-rate (kon) was found to be 2.04e+06 M⁻¹ s⁻¹. In experiment [5], the Kd stood at 0.0226 nM, the koff amounted to 3.87e-05 s⁻¹ and the on-rate (kon) was 1.71e+06 M⁻¹ s⁻¹. In experiment [6], the “KD (6)/KD (7.4)” value was 4.6 ratio, the “KD (7.4) ratio to YIS” value was found to be 1.6 ratio and the “koff (6) ratio to YIS” value worked out at 1.7 ratio. Also, in experiment [7], the “KD (6)/KD (7.4)” value was 4.3 ratio, the “KD (7.4) ratio to YIS” value amounted to 1.1 ratio and the “koff (6) ratio to YIS” value amounted to 1.2 ratio. In experiment [8], the Kd was determined as 0.101 nM, the koff amounted to 0.000121 s⁻¹ and the on-rate constant (kon) was 1.2e+06 M⁻¹ s⁻¹. Also, in [9], the Kd is 0.0962 nM, the off-rate (koff) worked out at 0.000182 s⁻¹ and the kon worked out at 1.9e+06 M⁻¹ s⁻¹.

B4: c11C5_C59Y (C59Y variant of c11C5) (antibody, IgG1, V domains shown)
VH: EVQLVESGGGLVKPGGSLKLSCAASGFTFSNYAMSWVRQTPEKRLEWVATVTEGGDYNYYLDDVKGRFTISRDNANDNLYLQMSHLKSEDSARYYCARDRWPYFFDYWGQGTTLTVSS
VL: DIQMTQSPASLSVSVGETVTITCRASENIYSNLAWYQQKQGRSPQLLVYGAKNLADGVPSRFSGSGSGTQYSLNINSLQSEDFGTYYCQHFWTTPRTFGGGTKLEIK
notes: Murine VL and VH, human CL and IgG1 CH1-CH3 domains with effectorless N297G
For B4, in [10], the Kd was found to be 0.446 nM. Moreover, in experiment [11], the “NK cells, IL-33+IL-12 stimulated IFN-γ, IC50” value was 2.9 nM; the “PHLF, IL-1α stimulated IL-8, IC50” value worked out at 3.96 nM; the “PHLF, IL-36β stimulated IL-8, IC50” value amounted to 0.284 nM; the “monocytes, IL-1β stimulated IL-6, IC50” value came to 0.733 nM.
